Reference: PMC6105031, “The crystal structure of KSHV ORF57 reveals dimeric active sites important for protein stability and function” (PLoS Pathogens, 2018)

Legend:
[1] = molecular target: GFP-tagged full-length ORF57 with all three disrupted nuclear localization signals (ORF57 mt1+2+3) (UniProt Q2HR75); test: nuclear translocation assay (fluorescence microscopy of cotransfected cells)
[2] = molecular target: the molecule itself; test: crystal structure; spindle-shaped crystal, sitting-drop vapor diffusion at 4°C, 0.1 M BIS-TRIS propane pH 7.0, 0.8 M lithium sulfate; space group P6(4)22, two molecules in the asymmetric unit, 3.5 Å
[3] = COS-1 cells, 50 double-color positive cells counted, parent: 88

FLAG-tagged full-length ORF57 (from UniProt Q2HR75) C333S; H423L; C427S; C432S
other: % cells with nuclear translocation ([1]; n=50): 0%

FLAG-tagged full-length ORF57 (from UniProt Q2HR75) R325A; R327A
other: % cells with nuclear translocation [1, 3]: 4%

FLAG-tagged full-length ORF57 (from UniProt Q2HR75) W292P
other: % cells with nuclear translocation [1, 3]: 0%

B1: C-terminal domain (CTD) of KSHV ORF57 (residues 167 to 455) (domain or fragment)
chain: GVSDAVKKLRLPASMIIDGESPRFDDSIIPRHHGACFNVFIPAPPSHVPEVFTDRDITALIRAGGKDDELINKKISAKKIDHLHRQMLSFVTSRHNQAYWVSCRRETAAAGGLQTLGAFVEEQMTWAQTVVRHGGWFDEKDIDIILDTAIFVCNAFVTRFRLLHLSCVFDKQSELALIKQVAYLVAMGNRLVEACNLLGEVKLNFRGGLLLAFVLTIPGMQSRRSISARGQELFRTLLEYYRPGDVMGLLNVIVMEHHSLCRNSECAAATRAAMGSAKFNKGLFFYPLS
notes: KSHV ORF57 (MTA), residues 167 to 455, GenBank ABD28908.1; Crystallised as a dimer (spindle-shaped crystal) and as a monomer (cubic crystal, 4.0 M LiCl); also called ORF57-CTD; source: E. coli BL21 (DE3), purified (Ni-NTA, ULP1 digestion, Superdex 75); not shown: His6, N-terminal, cleaved; SUMO (Smt3 of Saccharomyces cerevisiae), N-terminal, cleaved
stoichiometry N [2]: 2
